Experimental data published in publication PMC9784564 (2022).

Molecular target: CoV-2-RBD of the SARS-CoV-2 Inhibitor Screening Kit (SARS-CoV-2, UniProt P0DTC2 319-541)
Assay: ELISA

B1: CB79 (antibody, V domains shown)
VH: QVHLVQSGAEVKKPGASVKVSCKASGYTFTDYYMHWVRQAPGQGLEWMGRINPNSGGTNYPETLQGRVTMTTDTSTSTAYLEVRSLTPDDTAVYYCARVPYCSSTSCYSDWYFDLWGQGTLVTVSS
VL: DIVLTQSPLSLPVTPGETASISCRSSQSILDSDDGNTYLDWYLQKPGQSPQLLIYSLSYRASGVPDRFSASGSGTDFTLKISGVEAEDVGVYYCMQRIEFPLTFGGGTKLEIK
- IC50: 0.14 µg/mL
